What was measured:
[1] = target: T1, Anx A5 on PS containing liposomes (Homo sapiens, UniProt P08758); experiment: Liposome binding assay
T1 sequence (P08758 1-320): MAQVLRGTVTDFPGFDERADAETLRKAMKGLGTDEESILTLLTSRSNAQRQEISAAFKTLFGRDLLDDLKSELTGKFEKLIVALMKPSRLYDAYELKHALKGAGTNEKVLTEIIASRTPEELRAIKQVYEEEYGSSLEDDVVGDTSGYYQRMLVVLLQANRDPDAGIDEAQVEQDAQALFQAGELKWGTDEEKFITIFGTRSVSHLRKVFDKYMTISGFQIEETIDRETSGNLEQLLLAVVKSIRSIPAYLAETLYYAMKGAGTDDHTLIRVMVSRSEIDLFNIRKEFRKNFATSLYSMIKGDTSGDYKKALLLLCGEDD
Source text: Anx A5 binds to PS containing membranes in a Ca^2+-dependent manner. Recombinant La was introduced alone or along with recombinant Anx A5 to PS containing liposomes and pelleted liposomes by centrifugation to evaluate whether La was enriched with liposomes or in supernatant (FIG. 12C).
Liposome binding assay: Multilamellar liposomes were formed from pure PC or 9:1 (w/w) mixture of PC and PS. Both lipid compositions were supplemented with 0.5 mol % of lissamine rhodamine phosphatidylethanolamine. To prepare liposomes, lipid stock in benzene/methanol (95:5) was frozen in liquid nitrogen and freeze-dried overnight using SPEEDVAC™ (Savant). Dried lipid was resuspended in aqueous buffer (100 mM NaCl, 10 mM Hepes, pH 7.0) at 1 mM total lipid concentration and vortexed. Proteins and CaCl2 were added to the liposomes and the mixtures were incubated on ice for 30 minutes. To pellet, liposomes were centrifugated at 15,000 g for 20 minutes to pellet, based on rhodamine fluorescence ˜95% of liposomes. Centrifugated samples were then fractionated into a top, liposome-depleted fraction and a bottom fraction containing liposomes and liposome-bound proteins. Fractions were then solubilized via addition of Laemmli buffer (Bio Rad) and separated via SDS-PAGE, as described above. Recombinant La and recombinant Anx A5 were detected via their n-terminal 6×His tag via α-6×His antibody (Abcam) and signals for soluble vs liposome bound protein fractions were evaluated via densitometry. Data were presented as a percentage of protein signal bound to liposomes where: […]

[2] = system: HA0-expressing 3T3 fibroblasts and red blood cells; experiment: HA0-RBC fusion assay; format: cell-based, mouse, human
[3] = system: human osteoclasts; experiment: Synchronized osteoclast membrane fusion after LPC removal; format: cell-based; conditions: recombinant La applied to LPC-synchronized osteoclasts
Protocol: It was then assessed whether La at the surface of human osteoclasts functions at the cell fusion stage of osteoclastogensis. All cell-cell fusion events in development and tissue maintenance proceed through slow (days), asynchronous differentiation processes that prepare fusion competent cells (Brukman et al., J Cell Biol 218, 1436-1451, doi:10.1083/jcb.201901017 (2019)). Then, PM fusion occurs by the rapid (minutes) progression from the initial formation of hemifusion connections to fusion pores that unite the volumes of two cells (FIG. 3D, top). These steps were decoupled in the formation of multinucleated syncytia using the hemifusion inhibitor lysophosphatidylcholine (LPC) (Verma et al., J Biol Chem 293, 254-270, doi:10.1074/jbc.M117.809681 (2018)). LPC's inverted cone shape is not conducive to the concave geometry of the hemifusion stalk, so ready-to-fuse cells are trapped upstream of hemifusion. After removing LPC, cells undergo synchronized fusion relatively rapidly (within 90 mins), affording the ability to assess the function of proteins specifically in the membrane fusion stage of osteoclast formation decoupled from upstream differentiation processes (FIG. 3D, bottom). Ready-to-fuse, RANKL committed cells were accumulated in the presence of LPC, and then this hemifusion blockade was lifted by washing out LPC. […]

[4] = system: human monocyte-derived osteoclasts; experiment: Osteoclast fusion assay (number of fusion events, fluorescence microscopy); format: cell-based; conditions: recombinant protein ~40 nM added end of day 2 post-RANKL, overnight
Method in brief: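 Human donor monocytes differentiated 6 days with 100 ng/ml M-CSF, then 3 days with 100 ng/ml M-CSF plus 100 ng/ml RANKL. Fixed cells were stained with phalloidin and Hoechst; 16 random fields imaged at 10×, with fusion scored as the number of cell-to-cell fusion events.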

B1: recombinant La: recombinant La, species not specified at the place; 40 nM FL La in HA0-RBC assay (protein, UniProt P05455 1-408, looked up)
Lupus La protein: MAENGDNEKMAALEAKICHQIEYYFGDFNLPRDKFLKEQIKLDEGWVPLEIMIKFNRLNRLTTDFNVIVEALSKSKAELMEISEDKTKIRRSPSKPLPEVTDEYKNDVKNRSVYIKGFPTDATLDDIKEWLEDKGQVLNIQMRRTLHKAFKGSIFVVFDSIESAKKFVETPGQKYKETDLLILFKDDYFAKKNEERKQNKVEAKLRAKQEQEAKQKLEEDAEMKSLEEKIGCLLKFSGDLDDQTCREDLHILFSNHGEIKWIDFVRGAKEGIILFKEKAKEALGKAKDANNGNLQLRNKEVTWEVLEGEVEKEALKKIIEDQQESLNKWKSKGRRFKGKGKGNKAAQPGSGKGKVQFQGKKTKFASDDEHDEHDENGATGPVKRAREETDKEEPASKQQKTENGAGDQ
In the case of B1, the pelleting with liposomes ([1]; PS containing liposomes, La alone) is reported as “pelleted poorly”, the pelleting with liposomes ([1]; PS containing liposomes, La with Anx A5, Ca^2+) is reported as “pelleted with liposomes” and the pelleting with liposomes ([1]; liposomes lacking PS) is reported as “neither La nor Anx A5 pelleted”. For the same molecule, the “HA0-cell bound RBCs that exchanged lipid (hemifusion) or cytoplasmic (fusion pore) probes” value [2] was “none of 872”, the “lower activity than fusion mediated by activated HA” value [2] was “at least 100 fold” and the “probability of La mediated fibroblast-RBC fusion” value ([2]; upper limit by Wilson's method, 40 nM) was no more than 0.0044 per cell contact. For the same molecule, the “synchronized osteoclast membrane fusion” value [3] was “dramatically promoted” and the “formation of multinucleated syncytia (osteoclast fusion)” value [4] was “promotes osteoclast fusion”.

From US20240041978A1, “LA PROTEIN AS A NOVEL REGULATOR OF OSTEOCLASTOGENESIS” (The U.S.A., as Represented by the Secretary, Department of …, priority 2021, published 2024)
